Residue numbers refer to the chain shown, from its start.
Key:
[1] = target: ZIKV E protein (GZ01) (Zika virus (strain GZ01)); test: ELISA
[2] = target: T1, ZIKV E DIII protein (residues 301-403) (Zika virus (strain GZ01)); test: ELISA
T1 chain: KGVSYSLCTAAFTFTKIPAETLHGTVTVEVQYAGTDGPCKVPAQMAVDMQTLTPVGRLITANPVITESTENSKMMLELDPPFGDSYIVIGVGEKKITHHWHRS

B1: 2L-1 (antibody, V domains shown)
VH: EVQLVQSGAEVKKPGASVKVSCKASGYTFTSGHTFPSYDINWVRQATGQGLEWMGWMNPNRGNTGYAQKFQGRVTMTRNTSINTAYMELSSLRSEDTAVYYCARVRSGTNYGSYYYYYYGMDVWGQGTTVTVSS
VL: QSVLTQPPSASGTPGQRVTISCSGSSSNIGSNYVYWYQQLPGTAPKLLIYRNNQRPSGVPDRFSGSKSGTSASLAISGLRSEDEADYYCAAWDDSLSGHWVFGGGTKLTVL
B1 was tested, and the EC50 [1] was greater than 500 ng/mL and the EC50 [2] was greater than 500 ng/mL.

B2: 2L-2 (antibody, V domains shown)
VH: B1 VH
VL: QSVLTHRPSASGHPGQRVTISCSGSSSNIGNNYVYWYQQLPGTAPKLLIYRNNQRPSGVPDRFSGSKSGTSASLAISGLRSEDEADYYCAAWDDSLSGHWVFGGGTKLTVL
In the case of B2, the EC50 [1] is reported as 216 ng/mL and the EC50 [2] is reported as 267 ng/mL.

B3: 2L-8 (antibody, V domains shown)
VH: B1 VH
VL: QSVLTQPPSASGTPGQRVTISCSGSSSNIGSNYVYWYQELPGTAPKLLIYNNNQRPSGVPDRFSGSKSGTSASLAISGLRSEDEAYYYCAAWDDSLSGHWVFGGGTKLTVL
B3 gave an EC50 [1] greater than 500 ng/mL and an EC50 [2] greater than 500 ng/mL.

B4: 2L-9 (antibody, V domains shown)
VH: B1 VH
VL: B2 VL with Q1S, H6Q, R7P, H13T, S27T, N31S, V34A, Q39Y, S66F, I76V
With B4 the EC50 [1] was greater than 500 ng/mL and the EC50 [2] was greater than 500 ng/mL.

B5: 2L-6 (antibody, V domains shown)
VH: B1 VH
VL: SVLQPQPPSASRHPGQRVTISCLHGSSSNIGNNYVSWYQQLPGTDPKLLIYRNNHAASGVPDRFSGSKSGTSASLAISGLRSEDEADYYCAAWDDSLSGHWVFGGGTKLTVL
B5 gave an EC50 [1] of 356 ng/mL and an EC50 [2] of 335 ng/mL.

B6: ZK2B10 (antibody, V domains shown)
VH: B1 VH
VL: SYELTQPPSASGTPGQRVTISCSGSSSNIGNNYVHWYQQLPGSAPKLLIYRNNQRPSGVPDRFSGSKSGTSGSLAISGLRSEDEADYYCASWDDSLSGHWVFGGGTKVTVL
With B6 the EC50 [1] was 3.3 ng/mL and the EC50 [2] was 7.1 ng/mL.

B7: 2L-11 (antibody, V domains shown)
VH: B1 VH
VL: B2 VL with Q1Y, H6D, R7H, H13T, N31S, Q39E, R51N, D86Y
For B7, the EC50 [1] was greater than 500 ng/mL and the EC50 [2] was greater than 500 ng/mL.

B8: 2L-3 (antibody, V domains shown)
VH: B1 VH
VL: B2 VL with H13T, N31S, V34G
For B8, the EC50 [1] was greater than 500 ng/mL and the EC50 [2] was greater than 500 ng/mL.

B9: 2H-15 (antibody, V domains shown)
VH: EVQLVQSGAEVKKPGASVKVSCKASGYTFTSYDVNWVRQATGQGLEWMGWMNPNSGNTGYAQKFQGRVTMTRNTSISTAYMELSSLRSEDTAVYYCARVSSGSYYGSYYYYYYGMDVWGQGTTVTVSS
VL: B6 VL
Binder B9 has an EC50 [1] of 7.5 ng/mL and an EC50 [2] of 10 ng/mL.

B10: 2H-4 (antibody, V domains shown)
VH: B9 VH with E1Q, A9R, A24G, V34I, T41P, E89G
VL: B6 VL
B10 gave an EC50 [1] of 6.5 ng/mL and an EC50 [2] of 8.4 ng/mL.

B11: 2H-1 (antibody, V domains shown)
VH: B9 VH with E1Q, V34I
VL: B6 VL
B11 was tested, and the EC50 [1] was 5.3 ng/mL and the EC50 [2] was 3.4 ng/mL.

B12: 2H-2 (antibody, V domains shown)
VH: QVQLVQSGAEVKKPGSSVKVSCKASGGTFSSYAISWVRQATGQGLEWMGGIIPIFGTANYAQKFQGRVTITADESTSTAYMELSSLRSEDTAVYYCARVSSGSYYGSYYYYYYGMDVWGQGTTVTVSS
VL: B6 VL
B12 showed an EC50 [1] greater than 500 ng/mL and an EC50 [2] greater than 500 ng/mL.

B13: 2H-9 (antibody, V domains shown)
VH: B9 VH with A9G, E10K, K12V, K13E, P14L, S31T, V34I
VL: B6 VL
B13 was tested, and the EC50 [1] was 4.2 ng/mL and the EC50 [2] was 5.9 ng/mL.

B14: 2H-6 (antibody, V domains shown)
VH: B9 VH with M51L, Q62E
VL: B6 VL
B14 showed an EC50 [1] of 4.6 ng/mL and an EC50 [2] of 3.9 ng/mL.

B15: 2H-3 (antibody, V domains shown)
VH: B9 VH with E1Q, A9R, D33E, V34I
VL: B6 VL
B15 showed an EC50 [1] of 23.7 ng/mL and an EC50 [2] of 39 ng/mL.

B16: 2H-14 (antibody, V domains shown)
VH: B9 VH with E1Q, Q3H, L4A, D33G, V34I
VL: B6 VL
Binder B16 has an EC50 [1] of 242 ng/mL and an EC50 [2] of 215 ng/mL.

B17: 2H-10 (antibody, V domains shown)
VH: B9 VH with E1Q, A9V, K19E, K23Q, Y27I, F29S, V34I, T41N
VL: B6 VL
For B17, the EC50 [1] was 5.2 ng/mL and the EC50 [2] was 11.2 ng/mL.

B18: 2H-16 (antibody, V domains shown)
VH: B9 VH with E1Q, V34I, Y60C
VL: B6 VL
Binder B18 has an EC50 [1] of 5.8 ng/mL and an EC50 [2] of 4.1 ng/mL.

B19: 2H-5 (antibody, V domains shown)
VH: B9 VH with E1Q, K19N, S31M, V34I, A40T
VL: B6 VL
For B19, the EC50 [1] was 6.2 ng/mL and the EC50 [2] was 4.8 ng/mL.

Reference: publication PMC6821881 (2019)
